Measurements from article PMC2720631.

Molecular target: TRIP8b (mouse (endogenous in forebrain cortex)) (UniProt Q8C437)
Experiment: co-IP

Chain of HCN1 (O88704 whole entry): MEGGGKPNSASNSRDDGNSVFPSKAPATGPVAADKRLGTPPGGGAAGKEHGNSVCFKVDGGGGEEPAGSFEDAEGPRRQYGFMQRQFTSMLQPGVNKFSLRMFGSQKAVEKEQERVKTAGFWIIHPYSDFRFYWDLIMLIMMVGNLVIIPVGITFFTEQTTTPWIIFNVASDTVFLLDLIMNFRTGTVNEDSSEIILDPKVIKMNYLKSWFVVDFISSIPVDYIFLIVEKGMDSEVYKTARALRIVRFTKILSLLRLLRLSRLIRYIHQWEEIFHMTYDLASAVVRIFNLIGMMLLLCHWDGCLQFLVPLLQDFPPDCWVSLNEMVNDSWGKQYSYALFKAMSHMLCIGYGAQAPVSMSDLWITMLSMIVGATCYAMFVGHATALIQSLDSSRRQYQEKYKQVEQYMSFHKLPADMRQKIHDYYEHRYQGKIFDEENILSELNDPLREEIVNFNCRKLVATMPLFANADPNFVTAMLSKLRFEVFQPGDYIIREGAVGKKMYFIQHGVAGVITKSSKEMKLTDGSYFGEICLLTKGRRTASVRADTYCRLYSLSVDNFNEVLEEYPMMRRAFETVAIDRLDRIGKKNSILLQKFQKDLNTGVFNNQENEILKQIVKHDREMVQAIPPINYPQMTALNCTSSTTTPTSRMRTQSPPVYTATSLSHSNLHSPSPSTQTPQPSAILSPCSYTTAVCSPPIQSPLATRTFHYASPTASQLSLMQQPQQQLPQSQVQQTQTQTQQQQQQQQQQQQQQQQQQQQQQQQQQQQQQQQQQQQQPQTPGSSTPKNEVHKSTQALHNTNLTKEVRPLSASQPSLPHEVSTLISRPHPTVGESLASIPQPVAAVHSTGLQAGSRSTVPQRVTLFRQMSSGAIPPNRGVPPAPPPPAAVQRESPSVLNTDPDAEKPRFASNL
Chain of UniProt Q8C437 (Q8C437 whole entry): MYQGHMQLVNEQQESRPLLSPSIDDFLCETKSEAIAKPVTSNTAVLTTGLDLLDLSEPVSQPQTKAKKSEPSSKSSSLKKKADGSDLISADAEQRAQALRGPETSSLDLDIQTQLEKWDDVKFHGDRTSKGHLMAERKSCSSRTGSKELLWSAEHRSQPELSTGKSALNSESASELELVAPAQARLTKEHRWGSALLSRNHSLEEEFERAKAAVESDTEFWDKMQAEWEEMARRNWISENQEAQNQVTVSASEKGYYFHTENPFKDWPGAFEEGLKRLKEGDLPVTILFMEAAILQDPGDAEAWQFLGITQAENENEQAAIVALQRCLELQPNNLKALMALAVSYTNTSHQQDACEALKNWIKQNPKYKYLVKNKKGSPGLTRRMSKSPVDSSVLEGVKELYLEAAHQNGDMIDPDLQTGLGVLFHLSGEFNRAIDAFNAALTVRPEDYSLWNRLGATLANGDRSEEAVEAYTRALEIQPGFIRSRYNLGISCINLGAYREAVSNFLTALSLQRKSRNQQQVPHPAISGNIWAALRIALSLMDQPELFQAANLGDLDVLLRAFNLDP

percent of HCN1 co-immunoprecipitated: < 50%
Substance: HCN1 (from UniProt O88704 1-910) (natural protein)
